# Results from patent publication US20090203598A1.
# Target: ShB-IR (Shaker ShB variant with inactivation removed) (UniProt P08510)
# Experiment: cell-based or functional assay
# Sequence of ShB-IR (Shaker ShB variant with inactivation removed) (P08510 other isoform, or with tags, fused parts or gaps mutant): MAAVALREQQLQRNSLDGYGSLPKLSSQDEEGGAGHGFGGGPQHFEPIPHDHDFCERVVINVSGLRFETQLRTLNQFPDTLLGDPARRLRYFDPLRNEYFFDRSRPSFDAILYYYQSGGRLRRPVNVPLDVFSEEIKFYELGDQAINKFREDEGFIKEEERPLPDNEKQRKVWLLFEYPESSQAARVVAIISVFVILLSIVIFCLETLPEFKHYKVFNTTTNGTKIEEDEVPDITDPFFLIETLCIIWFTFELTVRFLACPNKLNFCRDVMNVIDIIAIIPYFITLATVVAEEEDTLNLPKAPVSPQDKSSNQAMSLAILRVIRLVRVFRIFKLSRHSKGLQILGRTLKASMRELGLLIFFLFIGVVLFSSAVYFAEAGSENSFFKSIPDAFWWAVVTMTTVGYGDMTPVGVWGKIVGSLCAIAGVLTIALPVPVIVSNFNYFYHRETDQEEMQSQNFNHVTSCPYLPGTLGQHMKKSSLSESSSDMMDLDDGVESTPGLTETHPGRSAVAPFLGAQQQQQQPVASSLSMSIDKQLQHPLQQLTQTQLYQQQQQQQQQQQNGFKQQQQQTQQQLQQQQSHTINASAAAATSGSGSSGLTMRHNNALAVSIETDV
substance,measurement,value
recombinant charybdotoxin (ChTx) (from UniProt P13487 23-59) (peptide),"inhibition of ShB-IR currents by 24 nM recombinant ChTx, two-electrode voltage clamp",15%
